In publication PMC9170038:

B1: Eterna 11801 (Exclusion 2) (ssRNA)
RNA: AGUAACAGAGGAUAUACUGUUUUAUGUGUUUAUUAUUUUGAACAUGAGGAUCACCCAUGUAGAAGGCUGAAUAA
B2: Eterna 7745506 (Same State - Arginine B) (ssRNA)
RNA: CCGGGCGGCCGAAGGAGCGGGCGGACCCGAGUGAUGUUCGGGUGGCCCGUGAGGGCCGGUGCCCAGGUAGGUCGCGGAUCCGCCC
B3: Eterna 1179 (Exclusion - Theophylline B) (ssRNA)
RNA: CACCCAGUCCUCGAUACCAGACUGGCACGUCAAAAGGUCCAGUGAUGUUGAGCCUAACAAGUCCCUUGGCAGCGACCAGUGUAUU
B4: Eterna 9910 (Sensor v3, turn-off variant 1) (ssRNA)
RNA: GAUUAUGCAAGCUUUCGGGACAUGAGGAUCACCCAUGUUCGUCUUAUUGAUCUAGGUACGCUGACGUACCUAGAUCU
B5: Eterna 13502 (Sensor v3, turn-off variant 2) (ssRNA)
RNA: AGUAGAUCUACGCUUGCGUGGAUCUGCAAUGUAGGUGUUACAUGAGGAUCACCCAUGUCCUCAUUUGCUCGUCUUAG
B6: Eterna 6055371 (Brourd's mod of Exclusion 4) (ssRNA)
RNA: GAUCGCCAUGUCAGGAUAUCUUGUAUACCCACGUUAGAGAAGGGACAUGAGGAUCACCCAUGUACCCUGGUUUU
B7: Eterna 7742068 (Same State - Tryptophan B) (ssRNA)
RNA: AGUACAAUGGCGGCCGCCACUCAACGCAGAUCAAAGAUCUGCGUUCACUCAGUGAUGUUGAGUGAGAGGACCGGGCCUUUGUACA
B8: Eterna 6117727 (Exclusion NG 3) (ssRNA)
RNA: GGUUGUCAUAGUCAUCCUUUCCGUACAUGAGGAUCACCCAUGUAGGAUAUGCUACUCACAGUGUGGCAGAAGGGCGUGUGUCUU
B9: Eterna 1774 (Same State - Tryptophan B) (ssRNA)
RNA: CGAUCUUGGUCGGCCGCCACUACACCCACACCAAAUAGGAAAGUAGCGAGUGAUGUUUGUGACGUUAGGACCGGGACCACUGGUC
B10: Eterna 6415900 (Inverted Small Loop Same State NG 3) (ssRNA)
RNA: UGCUACGUUUCGUAGCAGUGUCAUCGAGAAGGCCCUGACAUGAGGAUCACCCAUGUUGUUACAUGGGAGGAUAUCGAUGAUACA
B11: Eterna 5989570 (Sensor, turn-off variant 1) (ssRNA)
RNA: GUCAUCACACAUGGGAUCAACAUGAGGAUCACCCAUGUUGUCAAGUUUUUUGCUCGUCUUAUAAUACGUUUGAUGAC
B12: Eterna 7740606 (Exclusion - Theophylline A) (ssRNA)
RNA: AAGUCUCGUUAAUUCGAGGUUACGAUCGAUACCAGUAGCGAGAGGUACCCUUGGCAGCGAAGUGAGUGAUGUUCAUGAAAGAAGA
B13: Eterna 5984275 (Exclusion 4) (ssRNA)
RNA: AUUGUGUGAGGAUAUUAGCAGUAGACGAAUGGAGUCGUGGCUGAGAAGGCACAUGAGGAUCACCCAUGUUCCUU
B14: Eterna 7691283 (Same State - Arginine B) (ssRNA)
RNA: AUUCUAUUGUGAAGGAGCGCGACUAGUAGUGAUGUUACUAUAUGACUUUAGUCUUAAUUCUCGCAGGUAGGUCGCACAAUAUAUA
B15: Eterna 13336 (Sensor for hsa-mir-208a) (ssRNA)
RNA: AGUCCAGCCAGAGCUGGACAAAAGCAUGUACAUGAGGAUCACCCAUGUUCAUGUACAAGCUUUUUGCUCGUCUUAAA
B16: Eterna 6430466 (Small Loop Same State NG 3) (ssRNA)
RNA: UUCGAGCCAAGGCUCGCGAGUACACAGGAUAUGGAAAGUCACAUGAGGAUCACCCAUGUCCAAAACCAGAAGGGUGAGACUAAG
B17: Eterna 7700218 (Same State - Theophylline A) (ssRNA)
RNA: UGGUUAAGCAGUGAUGUUGCAAGUGAUGAUACCAGUUAAGAAGAGAACCCUUGGCAGCAUAAAGUGCGCUCUGAUGAGUGUGCUU
B18: Eterna 9534 (Sensor v3, turn-off variant 2) (ssRNA)
RNA: GGUACUAUCACCUGAGUGGUAGUGCCAUAAGCUUGUGAUACAUGAGGAUCACCCAUGUCCUCAUUUGCUCGUCUUAU
B19: Eterna 1729 (Same State - Tryptophan A) (ssRNA)
RNA: GGAGUCCCGUUAGAUUGUGUAGAUACAAGACGAGGACCGGUACGGCCGCCACUCGCCAUCGUCCAGUGAUGUUGGGCGUCACGGG
B20: Eterna 5789023 (Sensor v3, turn-off variant 2) (ssRNA)
RNA: ACAAGCUUUUUGUUCGUCUUAUAAAAUCCUAAGAGGAAAACAUGAGGAUCACCCAUGUAACAAAGACGGACUCAUGU
B21: Eterna 7698835 (Same State - Arginine B) (ssRNA)
RNA: GCUAUGGUAGGAAGGAGCGCUUAUUUAUUUUUACGAGUGAUGUUCGGUAGUAGAUAGUUAAAGCAGGUAGGUCGCCUACUAUAGC
B22: Eterna 1699 (Same State - Theophylline B) (ssRNA)
RNA: UCGCAUUAACCGGAUACCAGCUUAGUGGGAUCUUCAAUCCGACAGAAAGUGAUGUUUUCUAGCCCUUGGCAGCCGAGAUUAUCAC
B23: Eterna 7716240 (Exclusion - Theophylline B) (ssRNA)
RNA: GGUUUAUAAGAGGAUACCAGUACAAAUAAAGUACAUUAAUAGUAGAGUGAUGUUCUAAAGUACCCUUGGCAGCUUAGAUUAAGUU
B24: Eterna 1186 (Exclusion - Theophylline B) (ssRNA)
RNA: GAUAGUUAGAGAGAUACCAGCGAUACCUAGAUGGAAAGUGAUGUUCGCCAUCAAUUGCACCGCCCUUGGCAGCUCUCUCUUUGCU
B25: Eterna 6418068 (Inverted Exclusion NG 1) (ssRNA)
RNA: CGUGCUAUGUAGAAGGCAGAUCUGAUUCAGAUCUGAGGAUAUACAUGAGGAUCACCCAUGUUAUGCACCAGCACGAGAGUGCAC
B26: Eterna 7739799 (Exclusion - Arginine A) (ssRNA)
RNA: CAGACCACAGAGUGAUGUUCUGUGUCCGAAGGAGCGCGCGAGAGCGCAGGUAGGUCGCGGAUACAGUUGACGUACCUUCAAGACA
B27: Eterna 6441202 (Exclusion NG 1) (ssRNA)
RNA: ACAUUUUAUGCAGGAUAUUGACAUAGGAUUAAACAAGAAGGGCAUUACAUGAGGAUCACCCAUGUUUUAUUGGUAUAUAAGUUC
B28: Eterna 15484 (Exclusion 5) (ssRNA)
RNA: CUUUGAUGAGGAUAUCGAGGUUAGUACAUGAGGAUCACCCAUGUUAUCCAGGUGUCGGAUCGAGAAGGUAUUGGAC
B29: Eterna 6061522 (Exclusion 3) (ssRNA)
RNA: AAUUCGGCAGGAUAUACAUGAGGAUCACCCAUGUAAAUUUUUCGUUUAACUUGAAUGUGUAGAAGGGCCAUUUA
B30: Eterna 6073973 (Exclusion 2) (ssRNA)
RNA: UAGAUGGGAGGAUAUACGUAUAUGCAGGUUCGUGUGGUGCUACAUGAGGAUCACCCAUGUAGAAGGCCCGUCUU
B31: Eterna 5979585 (Sensor, turn-off variant 1) (ssRNA)
RNA: UACACUGCAUGAGGAUCAAACAUGAGGAUCACCCAUGUAUAGCAGGCUUUUUGUACGUCUUAUAAUUAUGUAGUGUA
B32: Eterna 6456081 (Exclusion NG 2) (ssRNA)
RNA: GGAUAGGACAGAGGAUAUACGUGCUAGAGAUACUAGCAAAAUUUCCACACAUGAGGAUCACCCAUGUAGAAGGCUGUCCUAUCG
B33: Eterna 7684838 (Same State - Theophylline A) (ssRNA)
RNA: AAAUUUAAUAUAUUUAAAUAAAUAUGUGAUACCAGACAUUUAUAAGUCCCUUGGCAGCACAAUGCAGUGAUGUUGCUUAUAAUAA
B34: Eterna 6030125 (Exclusion 6) (ssRNA)
RNA: GUGCGUGGCUAGGAUAUUGUGGAGUUUUGUCAGCGAGAAGGAGCCACAUGAGGAUCACCCAUGUGGUGUUGCUC
B35: Eterna 6120937 (Same State NG 1) (ssRNA)
RNA: GCCAUCACAUGAGGAUAUGGCACCGUUUCGGUGCCAGAAGGCAUGUCAUAAGACAUGAGGAUCACCCAUGUAGUUAAGAUGGCA
B36: Eterna 7686162 (Exclusion - FMN A) (ssRNA)
RNA: UACAUAUAAUUAUUUCUACAUUUAUUUAGUCAGGAUAUCGAUUAAACGAGAAGGGACAAUAUCAAGUGAUGUUUGAUAAUUCAAA
B37: Eterna 7614506 (Exclusion - Tryptophan A) (ssRNA)
RNA: UAUAUAUAUCACGAACUGUGGUGUAUGUCUCGAGGACCGGUACGGCCGCCACUCGCGCGGCCUCACAUGAGGAUCACCCAUGUUG
B38: Eterna 7727518 (Exclusion - Tryptophan B) (ssRNA)
RNA: GUUUUGGGAUCGGCCGCCACUACAUGAGGAUCACCCAUGUGGACAAAUAGGGUUUUUAAGCUCGGUAGGACCGGGAUUCGAACAU

molecular target: T1, MS2 coat protein, dlFG mutant (Escherichia phage MS2, UniProt P03612, del68-81insG); test: 4 mM Mg2+; no ligand; RNA-MaP array; 100 mM Tris-HCl pH 7.5, 80 mM KCl, 4 mM MgCl2, 0.1 mg/mL BSA, 1 mM DTT, 0.01 mg/mL yeast tRNA, 0.01% Tween-20; protein 1.5 nM to 3 uM; 37 C (Table S3); conditions: chain copies: 2; label: tethered by stalled RNA polymerase

| Binder | Kd |
| --- | --- |
| B1 | 0.0232 µM |
| B2 | > 3 µM |
| B3 | > 3 µM |
| B4 | 0.0165 µM |
| B5 | 0.312 µM |
| B6 | 0.0154 µM |
| B7 | > 3 µM |
| B8 | 0.017 µM |
| B9 | > 3 µM |
| B10 | 0.0121 µM |
| B11 | 0.0302 µM |
| B12 | > 3 µM |
| B13 | 0.0168 µM |
| B14 | > 3 µM |
| B15 | 0.592 µM |
| B16 | 0.458 µM |
| B17 | > 3 µM |
| B18 | 0.6 µM |
| B19 | > 3 µM |

| Binder | Kd |
| --- | --- |
| B20 | 0.013 µM |
| B21 | > 3 µM |
| UUUGGGCAGUGAUGUUGCCCCUUU (ssRNA) [Eterna 7 (K4-TR_control)] | > 3 µM |
| B22 | > 3 µM |
| B23 | > 3 µM |
| B24 | > 3 µM |
| B25 | 0.00712 µM |
| B26 | > 3 µM |
| B27 | 0.0155 µM |
| B28 | 0.0149 µM |
| B29 | 0.0228 µM |
| B30 | 0.0191 µM |
| B31 | 0.0151 µM |
| B32 | 0.00584 µM |
| B33 | > 3 µM |
| B34 | 0.175 µM |
| B35 | 0.922 µM |
| B36 | > 3 µM |

molecular target: T1, MS2 coat protein, dlFG mutant; test: 4 mM Mg2+; L-tryptophan 2.4 mM; RNA-MaP array; 100 mM Tris-HCl pH 7.5, 80 mM KCl, 4 mM MgCl2, 0.1 mg/mL BSA, 1 mM DTT, 0.01 mg/mL yeast tRNA, 0.01% Tween-20; protein 1.5 nM to 3 uM; 37 C (Table S3); conditions: chain copies: 2; label: tethered by stalled RNA polymerase

| Binder | Kd |
| --- | --- |
| B37 | 0.046 µM |
| B38 | 0.0675 µM |
